How the values were obtained:
[1] = molecular target: T1, mouse C1q (mouse, UniProt P14106 26-253); assay: OCTET biosensor, C1q immobilized, full length antibody in solution
T1 construct: In the CH50 assay the C1q is the one present in C57Bl/6 mouse serum; also called mouse C1q protein
Method: (§1) C1q-antibody interactions were measured using an OCTET™ System according to standard protocols and manufacturer's instructions. Briefly, human and mouse C1q proteins were immobilized separately on a biosensor at three concentrations (3 nM, 1.0 nM, and 0.33 nM).

[2] = molecular target: T2, human complement factor C1q (human, UniProt P02745 23-245; P02746 28-253; P02747 29-245); assay: as above
T2 construct: The immunogen was C1q purified from human plasma (Complement Technology A-099); In the CH50 assays the C1q is the one present in human serum; Observed mass about 460 kDa; also called human C1q; hC1q
Method: as §1

[3] = molecular target: T1, mouse C1q; assay: OCTET biosensor, C1q immobilized; mouse C1q
Method: as §1

[4] = molecular target: T2, human complement factor C1q; assay: OCTET biosensor, C1q immobilized; human C1q
Method: as §1

T1 sequence (chain, as listed by the source, chain 1 of 3): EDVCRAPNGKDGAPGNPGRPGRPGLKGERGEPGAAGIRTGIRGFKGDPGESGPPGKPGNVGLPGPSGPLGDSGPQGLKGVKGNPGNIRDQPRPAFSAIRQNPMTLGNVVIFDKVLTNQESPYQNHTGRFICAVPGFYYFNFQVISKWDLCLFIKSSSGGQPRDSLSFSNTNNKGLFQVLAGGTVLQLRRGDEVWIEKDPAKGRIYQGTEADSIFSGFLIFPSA
T1 sequence (P14106 26-253, chain 2 of 3): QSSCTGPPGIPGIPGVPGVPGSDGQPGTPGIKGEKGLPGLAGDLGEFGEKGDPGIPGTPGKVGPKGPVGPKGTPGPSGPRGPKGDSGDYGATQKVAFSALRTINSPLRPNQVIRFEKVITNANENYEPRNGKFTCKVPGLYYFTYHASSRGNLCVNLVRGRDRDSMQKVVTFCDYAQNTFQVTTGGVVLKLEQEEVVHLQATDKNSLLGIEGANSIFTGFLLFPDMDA
T1 sequence (chain, as listed by the source, chain 3 of 3): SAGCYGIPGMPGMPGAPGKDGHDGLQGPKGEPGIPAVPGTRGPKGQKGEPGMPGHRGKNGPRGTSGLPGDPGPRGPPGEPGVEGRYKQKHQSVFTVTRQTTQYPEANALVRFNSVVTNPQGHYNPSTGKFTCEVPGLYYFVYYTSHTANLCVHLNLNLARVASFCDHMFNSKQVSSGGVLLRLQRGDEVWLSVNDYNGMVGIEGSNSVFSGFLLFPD
T2 sequence (P02745 23-245 limits assumed, chain 1 of 3): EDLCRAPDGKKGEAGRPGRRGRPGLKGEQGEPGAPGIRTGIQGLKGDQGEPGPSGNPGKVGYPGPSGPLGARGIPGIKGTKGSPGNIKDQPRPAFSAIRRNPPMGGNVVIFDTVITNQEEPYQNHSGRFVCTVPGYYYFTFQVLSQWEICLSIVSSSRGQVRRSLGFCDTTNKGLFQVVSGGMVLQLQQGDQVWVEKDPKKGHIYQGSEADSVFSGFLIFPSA
T2 sequence (P02746 28-253 limits assumed, chain 2 of 3): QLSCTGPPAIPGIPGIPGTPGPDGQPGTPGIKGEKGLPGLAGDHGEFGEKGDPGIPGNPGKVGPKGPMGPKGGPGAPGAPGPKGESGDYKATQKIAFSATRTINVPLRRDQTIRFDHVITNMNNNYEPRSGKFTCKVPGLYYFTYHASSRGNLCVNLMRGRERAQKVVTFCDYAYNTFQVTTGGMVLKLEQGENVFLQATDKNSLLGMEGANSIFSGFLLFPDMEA
T2 sequence (P02747 29-245 limits assumed, chain 3 of 3): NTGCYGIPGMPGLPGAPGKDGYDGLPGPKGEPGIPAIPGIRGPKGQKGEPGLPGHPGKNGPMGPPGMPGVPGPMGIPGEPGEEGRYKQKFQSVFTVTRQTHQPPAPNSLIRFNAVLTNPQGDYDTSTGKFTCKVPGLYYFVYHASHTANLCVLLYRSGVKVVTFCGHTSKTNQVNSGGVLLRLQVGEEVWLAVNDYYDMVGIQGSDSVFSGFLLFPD

Kd [1]: 0.0323 nM | Kd [2]: 0.0128 nM | Kd [3]: < 0.1 nM | Kd [4]: < 0.1 nM
B1: murine anti-human C1q monoclonal antibody M1 (antibody, mouse IgG1, V domains shown)
VH: QVQLQQPGAELVKPGASVKLSCKSSGYHFTSYWMHWVKQRPGQGLEWIGVIHPNSGSINYNEKFESKATLTVDKSSSTAYMQLSSLTSEDSAVYYCAGERDSTEVLPMDYWGQGTSVTVSS
VL: DVQITQSPSYLAASPGETITINCRASKSINKYLAWYQEKPGKTNKLLIYSGSTLQSGIPSRFSGSGSGTDFTLTISSLEPEDFAMYYCQQHNEYPLTFGAGTKLELK
notes: Tested as full length hybridoma antibody; Isotype mouse IgG1, kappa; also called ANN-005; anti-C1q antibody M1

From patent US20170334976A1 (ANNEXON, published 2017)
